Results on one molecule are retold here after PMC13105642.

This assay concerns the target Antibody_82-M1. Briefly: SPR; Biacore 8K; antibody captured on a Protein G chip; gradient concentrations of LONP1 as analyte; 1x HBS-EP buffer; fitted to a 1:1 binding model. For orientation: Surface plasmon resonance follows binding to a sensor surface in real time, without labels.

Sequence of Antibody_82-M1 (heavy, as listed by the source, chain 1 of 2): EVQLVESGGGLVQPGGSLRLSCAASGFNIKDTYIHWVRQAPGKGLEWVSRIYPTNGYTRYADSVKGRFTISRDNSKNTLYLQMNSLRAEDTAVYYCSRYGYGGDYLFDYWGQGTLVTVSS
Sequence of Antibody_82-M1 (light, as listed by the source, chain 2 of 2): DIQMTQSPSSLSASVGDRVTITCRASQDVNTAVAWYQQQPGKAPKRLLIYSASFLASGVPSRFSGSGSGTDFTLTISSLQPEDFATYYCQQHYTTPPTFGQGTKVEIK

B1: Lon Peptidase 1 (LONP1) (enzyme)
chain: FWEASSRGGGAFSGGEDASEGGAEEGAGGAGGSAGAGEGPVITALTPMTIPDVFPHLPLIAITRNPVFPRFIKIIEVKNKKLVELLRRKVRLAQPYVGVFLKRDDSNESDVVESLDEIYHTGTFAQIHEMQDLGDKLRMIVMGHRRVHISRQLEVEPEEPEAENKHKPRRKSKRGKKEAEDELSARHPAELAMEPTPELPAEVLMVEVENVVHEDFQVTEEVKALTAEIVKTIRDIIALNPLYRESVLQMMQAGQRVVDNPIYLSDMGAALTGAESHELQDVLEETNIPKRLYKALSLLKKEFELSKLQQRLGREVEEKIKQTHRKYLLQEQLKIIKKELGLEKDDKDAIEEKFRERLKELVVPKHVMDVVDEELSKLGLLDNHSSEFNVTRNYLDWLTSIPWGKYSNENLDLARAQAVLEEDHYGMEDVKKRILEFIAVSQLRGSTQGKILCFYGPPGVGKTSIARSIARALNREYFRFSVGGMTDVAEIKGHRRTYVGAMPGKIIQCLKKTKTENPLILIDEVDKIGRGYQGDPSSALLELLDPEQNANFLDHYLDVPVDLSKVLFICTANVTDTIPEPLRDRMEMINVSGYVAQEKLAIAERYLVPQARALCGLDESKAKLSSDVLTLLIKQYCRESGVRNLQKQVEKVLRKSAYKIVSGEAESVEVTPENLQDFVGKPVFTVERMYDVTPPGVVMGLAWTAMGGSTLFVETSLRRPQDKDAKGDKDGSLEVTGQLGEVMKESARIAYTFARAFLMQHAPANDYLVTSHIHLHVPEGATPKDGPSAGCTIVTALLSLAMGRPVRQNLAMTGEVSLTGKILPVGGIKEKTIAAKRAGVTCIVLPAENKKDFYDLAAFITEGLEVHFVEHYREIFDIAFPDEQAEALAVER
As usually defined, the Kd is the equilibrium constant for the complex coming apart. A lower Kd goes with tighter binding. Usually koff stands for the rate constant with which the complex falls apart. Read a high koff as fast dissociation. The kon is the second-order rate constant of association. Low values mean slower complex formation, high ones faster complex formation. As to B1, the Kd turned out to be 0.829 nM, the off-rate (koff) worked out at 0.000151 s⁻¹ and the on-rate (kon) was 182000 M⁻¹ s⁻¹.
